Results on four molecules are retold here after patent US20070015695A1 (NATIONAL JEWISH HEALTH, published 2007).

Broadly, the Kd is the free concentration of one partner at which half of the binding sites on the other are occupied at equilibrium, for simple one-to-one binding. Higher therefore signals weaker binding.

B1: BCMA, entire, overexpressed on transfected 293 cells (receptor)
chain: MLQMAGQCSQNEYFDSLLHACIPCQLRCSSNTPPLTCQRYCNASVTNSVKGTNAILWTCLGLSLIISLAVFVLMFLLRKISSEPLKDEFKNTGSGLLGMANIDLEKSRTGDEIILPRGLEYTVEECTCEDCIKSKPKVDSDHCFPLPAMEEGATILVTTKTNDYCKSLPAALSATEIEKSISAR
notes: also called BCMA-transfected 293 cells; cells that overexpressed entire BCMA
B2: extracellular domain of BCMA (residues 1 to 51 of SEQ ID NO:6), soluble monomer, cleaved from GST-BCMA (receptor)
chain: MLQMAGQCSQNEYFDSLLHACIPCQLRCSSNTPPLTCQRYCNASVTNSVKG
notes: Expressed as a GST fusion in pGEX4T-2 and cleaved from GST with thrombin; also called monomeric BCMA; monomeric BMCA

Test [1] addresses T1, soluble TALL-1 (sTALL-1), amino acids 134-285 of human TALL-1, His6-tagged, wild type (human, UniProt Q9Y275 134-285).
T1 construct: Expressed in E. coli; Monomers form trimers, and at pH 7.4 and above a virus-like cluster of 60 monomers (20 trimers); Immobilised as 'wild type multimeric sTALL-1' in the BIAcore assay; also called wild type sTALL-1; native sTALL-1; not shown: N-terminal His6 tag from vector pET14b
Put plainly: flow cytometry on BCMA-transfected 293 cells, anti-His6 mAb detection. Here is the method:
(§1) First, BCMA-transfected 293 cells were incubated with control medium, wild type sTALL-1 in the control medium, and mutant sTALL-1 in the control medium. Cell staining was performed by sequential incubation (each 40 min) with anti-His₆ mAb and RPE-conjugated goat […] IgG in staining buffer. The fluorescence was measured by using a Becton Dickinson FACScan flow cytometer (Shu et al., 2000, supra) (data not shown).
(In flow cytometry, cells or beads pass a laser one at a time.)

The target in test [2] is T1, soluble TALL-1 (sTALL-1), amino acids …. Nature of the test: BIAcore SPR, sTALL-1 immobilised on CM-5 chip, monomeric BCMA (10-1000 nM) injected, Scatchard analysis of equilibrium binding. Here is the method:
(§2) The binding affinity of BCMA for the wild type versus mutant sTALL-1 was further determined using BIACore surface plasmon resonance. To obtain the true affinity of the receptor without the confounding effect of multivalent binding, the polyvalent TALL-1 proteins were immobilized in the instrument flow cells and the soluble monomeric BCMA was injected in the mobile phase. The KD of the interaction was calculated by Scatchard analysis of the equilibrium data (data not shown). Briefly, wild type multimeric sTALL-1 and mutant trimeric sTALL-1 were immobilized (11,000 and 3000 RU, respectively) in separate flow cells of a CM-5 BIAcore Biosenser chip using standard amine coupling reagents. Various concentrations (10-1000 nM) of monomeric BMCA were injected for one min at a flow rate of 20 μl/min in a buffer of 100 mMNaCl, 20 mM Tris-HCI pH8.0 and 0.005% P20 detergent and the binding kinetics recording. For base line calculations the same BMCA samples were injected in a control flow cell with no protein immobilized. Receptor binding kinetics were too rapid for accurate measurements of on rates and off rates, but equilibrium binding values (Rmax) were used to calculate the overall affinity of receptor binding by Scatchard analysis.
On the technique in general: SPR reads the build-up and loss of mass on a sensor chip optically.

The target is the same in test [3]. Put plainly: co-expression, gel filtration at 100 mM to 1 M NaCl and SDS gel analysis, ratio 1:1. Here is the method:
However, four lines of evidence support the present inventors' belief that the crystal structure described herein reflects the actual interactions of the complexes in solution and in vivo. First, co-expression of sTALL-1 with eBCMA or eBAFF-R generates the virus-like cluster in solution as judged by gel-filtration column and […] analysis at a ratio of 1:1 (sTALL-1: eBCMA or eBAFF-R). Different salt concentrations (from 100 mM to 1 M NaCl) produce the same elution profile, in which complexes of sTALL-1 with eBCMA or eBAFF-R elute at a void volume on superdex-200. Thus, binding between ligand and receptors is stable and insensitive to salt concentrations. Purified samples of the preformed complexes were subjected to crystallization trials. Crystals of both complexes have been obtained, however neither of them diffracted. The results further confirmed that the “flap” region of TALL-1 which is involved in clustering, is not part of the receptor binding site. […] Second, in the receptor soaked sTALL-1 crystals, all seven fully occupied receptors and one partial receptor have equivalent binding sites on sTALL-1 in the asymmetry unit, so the binding is highly specific. Third, eBCMA and eBAFF-R have a similar binding mode and occupy the same site on sTALL-1. […]

For test [4], the target named is B1. Put plainly: flow cytometry on BCMA-transfected 293 cells, anti-His6 mAb detection. Here is the method:
as §1

Test [5] has as its target B2. Nature of the test: BIAcore SPR, mutant trimeric sTALL-1 immobilised on CM-5 chip, monomeric BCMA (10-1000 nM) injected, Scatchard analysis of equilibrium binding; mutant trimeric sTALL-1 (flap removed) immobilised, monomeric BCMA injected. Here is the method:
as §2

In the case of B1, in test [1], the binding result was “binds”.
Take B2: in test [2], the Kd was roughly 100 nM.

B3: eBCMA, extracellular domain of BCMA (residues 1-52 of SEQ ID NO:6) (receptor)
chain: MLQMAGQCSQNEYFDSLLHACIPCQLRCSSNTPPLTCQRYCNASVTNSVKGT
notes: Residues 5-43 are ordered in the model; Made as a GST fusion and cleaved with thrombin
On to B3, for which the binding result in test [3] was “binds”.

B4: mutant sTALL-1 with residues 217-224 of SEQ ID NO:2 (flap region) replaced by two glycines (ligand)
chain: AVQGPEETVTQDCLQLIADSETPTIQKGSYTFVPWLLSFKRGSALEEKENKILVKETGYFFIYGQVLYTDKTYAMGHLIQRKKGGSLVTLFRCIQNMPETLPNNSCYSAGIAKLEEGDELQLAIPRENAQISLDGDVTFFGALKLL
notes: Gel filtration gave trimer and monomer peaks and no cluster; Immobilised as 'mutant trimeric sTALL-1' in the BIAcore assay; also called truncated sTALL-1; sTALL-1 217-224; not shown: N-terminal His6 tag; the mutant was overexpressed and purified as the native sTALL-1 and detected with anti-His6 mAb; le
Regarding B4, the binding result in test [4] is recorded as “binds”. This molecule registered a Kd in test [5] of roughly 100 nM.
